Experimental data as given in PMC4865107.

Legend:
Topo IV [1] = experiment: EMSA; conditions: Topo IV alone; stated as bound poorly; 1 mM spermidine, 30 mM potassium glutamate, 10 mM DTT, 6 mM MgCl2, 10% glycerol, pH 7.4, 15 min at RT; 4% native PAGE (plasmid: 0.8% agarose, 0.5x TAE, 4 C)
[2] = tested on: Topo IV;XerC;XerD (Escherichia coli?;Escherichia coli?;Escherichia coli?); experiment: EMSA (agarose); conditions: 50 nM XerCD; migration delay seen with 40 nM Topo IV; 1 mM spermidine, 30 mM potassium glutamate, 10 mM DTT, 6 mM MgCl2, 10% glycerol, pH 7.4, 15 min at RT; 4% native PAGE (plasmid: 0.8% agarose, 0.5x TAE, 4 C)
Topo IV [3] = experiment: EMSA (agarose); conditions: no XerCD; 200 nM Topo IV required for migration delay; 1 mM spermidine, 30 mM potassium glutamate, 10 mM DTT, 6 mM MgCl2, 10% glycerol, pH 7.4, 15 min at RT; 4% native PAGE (plasmid: 0.8% agarose, 0.5x TAE, 4 C)

dif probe, 250 bp
Kd (Topo IV [1]): > 100 nM

negatively supercoiled plasmid containing dif
binding [2]: 40 nM | binding (Topo IV [3]): 200 nM
